Source: FireProtDB (doi:10.1016/j.bpc.2006.12.004)
Several values for one entry are separate records, joined by “and”; a condition that tells them apart may be missing. Identical values can stand only once.

Conditions: pH 8.4, Thermal, Capillary electrophoresis, whole UniProt chain shown; for unfolding free energy: 25 °C
[1] = Bos taurus, Tris Gly 25 mM 192 mM, NaCl 25 mM
[2] = Bos taurus, Tris Gly fructose 25 mM 192 mM 1.21 M, NaCl 25 mM
[3] = Bos taurus, Tris Gly sucrose 25 mM 192 mM 0.15 M, NaCl 25 mM
[4] = Bos taurus, Tris Gly sucrose 25 mM 192 mM 0.31 M, NaCl 25 mM
[5] = Bos taurus, Tris Gly sucrose 25 mM 192 mM 0.47 M, NaCl 25 mM
[6] = Bos taurus, Tris Gly sucrose 25 mM 192 mM 0.63 M, NaCl 25 mM
[7] = Bos taurus, Tris Gly sucrose 25 mM 192 mM 0.96 M, NaCl 25 mM
[8] = Aspergillus oryzae (strain ATCC 42149 / RIB 40), Tris Gly 25 mM 192 mM, NaCl 30 mM
[9] = Aspergillus oryzae (strain ATCC 42149 / RIB 40), Tris Gly fructose 25 mM 192 mM 0.57 M, NaCl 30 mM
[10] = Aspergillus oryzae (strain ATCC 42149 / RIB 40), Tris Gly fructose 25 mM 192 mM 1.21 M, NaCl 30 mM
[11] = Aspergillus oryzae (strain ATCC 42149 / RIB 40), Tris Gly fructose 25 mM 192 mM 1.52 M, NaCl 30 mM
[12] = Aspergillus oryzae (strain ATCC 42149 / RIB 40), Tris Gly sucrose 25 mM 192 mM 0.15 M, NaCl 30 mM
[13] = Aspergillus oryzae (strain ATCC 42149 / RIB 40), Tris Gly sucrose 25 mM 192 mM 0.31 M, NaCl 30 mM
[14] = Aspergillus oryzae (strain ATCC 42149 / RIB 40), Tris Gly sucrose 25 mM 192 mM 0.47 M, NaCl 30 mM
[15] = Aspergillus oryzae (strain ATCC 42149 / RIB 40), Tris Gly sucrose 25 mM 192 mM 0.63 M, NaCl 30 mM
[16] = Aspergillus oryzae (strain ATCC 42149 / RIB 40), Tris Gly sucrose 25 mM 192 mM 0.80 M, NaCl 30 mM

B1: Alpha-lactalbumin wild type, P00711 (protein)
chain: MMSFVSLLLVGILFHATQAEQLTKCEVFRELKDLKGYGGVSLPEWVCTTFHTSGYDTQAIVQNNDSTEYGLFQINNKIWCKDDQNPHSSNICNISCDKFLDDDLTDDIMCVKKILDKVGINYWLAHKALCSEKLDQWLCEKL
Work on B1 yielded an unfolding free energy [1] of 3.3 kcal/mol, an unfolding free energy (Bos taurus, Tris Gly fructose 25 mM 192 mM 0.57 M, NaCl 25 mM) of 4.5 kcal/mol and an unfolding free energy [2] of 5.6 kcal/mol. For the same protein, the unfolding free energy [3] was 3.8 kcal/mol, the unfolding free energy [4] was 4.6 kcal/mol and the unfolding free energy [5] was 5.3 kcal/mol. The unfolding free energy [6] was 5.7 kcal/mol, the unfolding free energy [7] was 7 kcal/mol and the Tm [1] was 56.1 °C and 56 °C. For the same protein, the “heat capacity change of unfolding” value [1] was 2.1 kcal/mol/K, the “unfolding enthalpy (van 't Hoff)” value [1] was 69 kcal/mol and the Tm [2] was 61.6 °C. The Tm (Bos taurus, Tris Gly fructose 25 mM 192 mM 1.83 M, NaCl 25 mM) was 63.2 °C, the Tm [3] was 56.3 °C and the Tm [4] was 57.5 °C. The Tm [5] was 59 °C, the Tm [6] was 60.5 °C and the Tm [7] was 62.4 °C.

B2: Guanyl-specific ribonuclease T1 wild type, P00651 (protein)
chain: MMYSKLLTLTTLLLPTALALPSLVERACDYTCGSNCYSSSDVSTAQAAGYQLHEDGETVGSNSYPHKYNNYEGFDFSVSSPYYEWPILSSGDVYSGGSPGADRVVFNENNQLAGVITHTGASGNNFVECT
Protein B2 has an unfolding free energy [8] of 8.2 kcal/mol, an unfolding free energy (Aspergillus oryzae (strain ATCC 42149 / RIB 40), Tris Gly fructose 25 mM 192 mM 0.29 M, NaCl 30 mM) of 9.1 kcal/mol and an unfolding free energy [9] of 9.5 kcal/mol. For the same protein, the unfolding free energy [10] was 10.5 kcal/mol, the unfolding free energy [11] was 11.2 kcal/mol and the unfolding free energy [12] was 9.1 kcal/mol. For the same protein, the unfolding free energy [13] was 9.5 kcal/mol, the unfolding free energy [14] was 10.2 kcal/mol and the unfolding free energy [15] was 10.6 kcal/mol. For the same protein, the unfolding free energy [16] was 11.1 kcal/mol, the Tm [8] was 62.6 °C and 62.5 °C and the “heat capacity change of unfolding” value [8] was 1.3 kcal/mol/K. The “unfolding enthalpy (van 't Hoff)” value [8] was 98 kcal/mol, the Tm [9] was 64.5 °C and the Tm (Aspergillus oryzae (strain ATCC 42149 / RIB 40), Tris Gly fructose 25 mM 192 mM 0.89 M, NaCl 30 mM) was 66 °C. It also gave a Tm [10] of 66.5 °C, a Tm [11] of 68 °C and a Tm [12] of 63.6 °C. It also gave a Tm [13] of 64.7 °C, a Tm [14] of 65.9 °C and a Tm [15] of 66.5 °C. For the same protein, the Tm [16] was 67.1 °C.
